21 variants from the RNAGym collection of RNA variant scans (doi:10.1073/pnas.2313332121) can be followed below.

First the molecules themselves.
B1: TPR t1 (parent)
chain: GACCAAUCUGCCCUCAGAGCUCGAGAACAUCUUCGGAUGCAGAGGAGGCAGGCUUCGGUGGCGCGAUAGCGCCAACGUCCUCAACCUCCAAUGCAUCCCACCACAUGAUGAUGCCUGAAGAGCCUUGGUUUUUUG

This series covers variants of B1. Kind of series: polymerase ribozyme fitness, log enrichment relative to wild type (log ratio); higher = more active; in vitro selection for triplet polymerase activity. Put shortly:
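To select mutant libraries of each subunit of a heterodimeric triplet polymerase ribozyme, built by PCR and transcribed, each was annealed with a biotinylated primer, partner subunit and triplets, then incubated frozen at −7 °C. Extended constructs were gel-excised, captured on streptavidin beads and amplified by RT-PCR, in one round carried out in triplicate. Illumina sequencing of input and output libraries kept genotypes with ≥10 input reads and ≥1 read per output. Fitness is the base-2 logarithm of genotype enrichment relative to wild-type enrichment, from inverse-variance-weighted replicate averages.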
As for GACCAAUCUGCCCUCAGAGCUCGAGAACAUCUUCGGAUGCAGAGGAGGCAGGCUUCGGUGGUGCGAUAGCGCCAACGUCCUCAACCUCCAAUGCAUCCCACCACAUGAUGAUCCCUGAAGAGCCUUCGUUUUUUG, the “polymerase ribozyme fitness (log ratio)” value was -3.6. The value for GACCAAUCUGCCCUCAGAGCUCGAGAACAUCUUCGGAUGCAGAGGAGGCAGGCUUCGGUGGUGCGAUAGCGCCAACGUCCUCAAACUCCAAUGCAUCCCACCACAUGAUGAUGCCUGAAGAGCCUUGGUUUUUUG was -2.09.

Take GACCAAUCUGCCCUCAGAGCUCGAGAACAUCUUCGGAUGCAGAGGAGGCAGGCUUCGGUGGUGCGAUAGCCCCAACGUCCUCAACCUCCAAUGCAUCCCACCACAUGAUGAUGCCUGAAGAGCCUUGGUUGUUUG: the “polymerase ribozyme fitness (log ratio)” value is -0.416. The value for GACCAAUCUGCCCUCAGAGCUCGAGAACAUCUUCGGAUGCAGAGGAGGCAGGCUUCGGUGGUGCGAUAGCGCCAACGUCCUAAACCUCCAAUGCAUCCCACCACAUGAUGAUGCCUGAAGAGCCUUGGUUUUUUG was -1.44. The value for GACCAAUCUGCCCUCAGAGCUCGAGAACAUCUUCGGAUGCAGAGGAGGCAGGCUUCGGUGGUGCGAUAGCGCCAACGUCCUCAACCUCCACUGCAUCCCACCACAUGAUGAUGCCUGAAGAGCCUUGGUUUUUUG was -1.43.

For GACCAAUCUGCCCUCAGAGCUCGAGAACAUCUUCGGAUGCAGAGGAGGCAGGCUUCGGUGGUGCGAUAGCGGCAACGUCCUCAACCUCCAAUGAAUCCCACCACAUGAUGAUGCCUGAAGAGCCUUGGUUUUUUG, the “polymerase ribozyme fitness (log ratio)” value was -3.29. As for GACCAAUCUGCCCUCAGAGCUCGAGAACAUCUUCGGAUGCAGAGGAGGCAGGCUUCGGUGGUGCGAUAGUGCCAACGUCCUCAACCUCCAAUGCAUCCCACCACAUGAUGAUGCCUGAAGAGCCUUGGUUUUAUG, the “polymerase ribozyme fitness (log ratio)” value turned out to be 0.14. In the case of GACCAAUCUGCCCUCAGAGCUCGAGAACAUCUUCGGAUGCAGAGGAGGCAGGCUUCGGUGGUGUGAUAGCGCCAACGUCCUCAACCUCCAAUGCAUCCCACCACAUGAUGAUGCCUGAAGAGACUUGAUUUUUUG, the “polymerase ribozyme fitness (log ratio)” value was -1.1. As for GACCAAUCUGCCCUCAGAGCUCGAGAACAUCUUCGGAUGCAGAGGAGGCAGGCUUCGGUGGUGCGAUAGCGCCAACGUCCUCAACCUCCAAUGCAUCCCACCACAUGAUGAUGACUGAAGAGCCUUGGUUUUUUG, the figure is -1.35; as for GACCAAUCUGCCCUCAGAGCUCGAGAACAUCUUCGGAUGCAGAGGAGGCAGGCUUCGGUGGUGCGAUAGCGCCAACGUCCUCAACUUCCAAUGCAUCCCUCCACAUGAUAAUGCCUGAAGAGCCUUGGGUUUUUG, -4.42. The value for GACCAAUCUGCCCUCAGAGCUCGAGAACAUCUUCGGAUGCAGAGGAGGCAGGCUUCGGUGGUGCGAUAGCGCCAACGUCCUCAACCUCCAAUGCAUCACACCACAUGAUGAUGCCUGAAGAGCCUUGGUUUUUUG was -5.51; that for GACCAAUCUGCCCUCAGAGCUCGAGAACAUCUUCGGAUGCAGAGGAGGCAGGCUUCGGUGGUGCGAUAGCGCCAACGUCCUCAACCUCCAAUGCGCCCCACCACAUGAUGAUGCCUGAAGAGCCUUGGUUUUUUG was -1.53; that for GACCAAUCUGCCCUCAGAGCUCGAGAACAUCUUCGGAUGCAGAGGAGGCAGGCUUCGGUGGUGCGAUAGCGCCAACGUCCUCAACCUCCAAUGCAUCGCACCACAUGAUGAUGCCUCAAGAGCCUUGAUUUUCUG was -5.87. The value for GACCAAUCUGCCCUCAGAGCUCGAGAACAUCUUCGGAUGCAGAGGAGGCAGGCUUCGGUGGUGCGAUAGCGCCAACGUCCUCAACCUCCAAUGCAUCCCACCACAUGAUCAUGCCUGAAGAGCUAUGGUUUUUUG was -5.16. Turning to GACCAAUCUGCCCUCAGAGCUCGAGAACAUCUUCGGAUGCAGAGGAGGCAGGCUUCGGUGGUGCGAUAGCGCCAACGUCCUCAACCUCCAAUGCAUCCCAGCACAUGAUGAUGCCUGAAGAGCCUUGGUUUUUUG, the “polymerase ribozyme fitness (log ratio)” value is -1.35. As for GACCAAUCUGCCCUCAGAGCUCGAGAACAUCUUCGGAUGCAGAGGAGGCAGGCUUCGGUGGUGCGAUAGCGCCAACGUCCUCAACCUCCAAUGCAUCCCAACACAUGAUGAUGCCUGAAGAGCCUUGGUUUUUUG, the figure is -0.746.

Turning to GACCAAUCUGCCCUCAGAGCUCGAGAACAUCUUCGGAUGCAGAGGAGGCAGGCUUCGGUGGUGCGAUAGCGCCAACGUCCUCAACCACCAAUGCAUCCCACCACAUGAUGAUGCCUGAAGUGCCUUGGUUUUUUG, the “polymerase ribozyme fitness (log ratio)” value was 2.07.

GACCAAUCUGCCCUCAGAGCUCGAGAACAUCUUCGGAUGCAGAGGAGGCAGGCUUCGGUGGUGCGAUAGCGCCAACGUCCUCAACCUCCAAAGCAUCCCACCACAUGAUGAUGCCUGAAGAGCCUUGGUUUUUUG: the “polymerase ribozyme fitness (log ratio)” value is -3.44. The value for GACCAAUCUGCCCUCAGAGCUCGAGAACAUCUUCGGAUGCAGAGGAGGCAGGCUUCGGUGGUGCGAUAGCGCCAACGUCCUCAACCUCCAAGGCAUCCCACCACAUGAUGAUGCCUGAAGAGCCUUGGUUUUUUG was -2.9; that for GACCAAUCUGCCCUCAGAGCUCGAGAACAUCUUCGGAUGCAGAGGAGGCAGGCUUCGGUGGUGCGAUAGCGCCAACGUCCUCAAACUCCAAUGCAUCCCAGCACAUGAUGAUGCCUGAAGAGCCUUGGUUUUUUG was -3.99. The value for GACCAAUCUGCCCUCAGAGCUCGAGAACAUCUUCGGAUGCAGAGGAGGCAGGCUUCGGUGGUGCGAUAGCGCCAACGUCCUCAACCUCCAAUCCAUCCCACCACAUGAUGAUGCCUGAAGAGCCUUGGUUUUUUG was -1.8.
